The record followed here is article PMC4747905, “Structure of BRCA1-BRCT/Abraxas Complex Reveals Phosphorylation-Dependent BRCT Dimerization at DNA Damage Sites” (Molecular Cell, 2016).

B1: BRCT-Ab2p_short complex (complex)
chain: VNKRMSMVVSGLTPEEFMLVYKFARKHHITLTNLITEETTHVVMKTDAEFVCERTLKYFLGIAGGKWVVSYFWVTQSIKERKMLNEHDFEVRGDVVNGRNHQGPKRARESQDRKIFRGLEICCYGPFTNMPTDQLEWMVQLCGASVVKELSSFTLGTGVHPIVVVQPDAWTEDNGFHAIGQMCEAPVVTREWVLDSVALYQCQELDTYLIPQIP
peptide: YSRSPTF
modifications: phosphoserine at S404 and S406
notes: as m1: BRCA1 tandem BRCT domains; limits in the Supplemental Information; as m5: Abraxas C-terminal peptide YpSRpSPTF; the 1:1 unit of m1 and m5; source: purified BRCT mixed with peptide at 1:3 molar ratio
B2: Abraxas peptide Ab2p(Y403A) (peptide, UniProt Q6UWZ7 399-409, looked up)
peptide: GFGEA[pS]R[pS]PTF
notes: Abraxas C-terminal peptide, as Ab2p (GFGEYpSRpSPTF) with Y403A
B3: Abraxas peptide Ab1p (S404P) (peptide, UniProt Q6UWZ7 399-409, looked up)
peptide: GFGEYPR[pS]PTF
notes: Abraxas C-terminal peptide, as Ab1p (GFGEYSRpSPTF) with S404P
B4: Abraxas peptide Ab2p (F400D) (peptide, UniProt Q6UWZ7 399-409, looked up)
peptide: GDGEY[pS]R[pS]PTF
notes: Abraxas C-terminal peptide, as Ab2p (GFGEYpSRpSPTF) with F400D
B5: Abraxas peptide Ab2p(E402R) (peptide, UniProt Q6UWZ7 399-409, looked up)
peptide: GFGRY[pS]R[pS]PTF
notes: Abraxas C-terminal peptide, as Ab2p (GFGEYpSRpSPTF) with E402R
B6: Abraxas peptide Ab1p (S404D) (peptide, UniProt Q6UWZ7 399-409, looked up)
peptide: GFGEYDR[pS]PTF
notes: Abraxas C-terminal peptide, as Ab1p (GFGEYSRpSPTF) with the phosphomimetic S404D
B7: Abraxas double phosphorylated peptide Ab2p_short (peptide)
peptide: Y[pS]R[pS]PTF
notes: Abraxas C-terminal peptide without GFGE, printed as YpSRpSPTF; source: synthesized peptide
B8: Abraxas single phosphorylated peptide Ab1p (peptide)
peptide: GFGEYSR[pS]PTF
notes: Abraxas C-terminal peptide, printed as GFGEYSRpSPTF; source: synthesized peptide

Square brackets hold non-standard residues; d marks the D form. Ends that are not written are not given here. pS = N[C@@H](COP(=O)(O)O)C(=O)O

The first data set deals with the molecule itself. The data set can be described thus: SEC; BRCT and peptide mixed 1:3 (molar), final 1 mg/ml (about 40 μM), Superdex 75 10/300, Buffer A, 0.5 ml/min.
Settings: not given
Turning to B1, the binding result is recorded as “binds”.

For another data set, the target named is T1, BRCA1 BRCT domains (UniProt P38398 1646-1859).
T1 construct: BRCA1 tandem BRCT domains (BRCT1 and BRCT2); construct limits are in the Supplemental Information; also called BRCT domain only; source: purified; construction and purification are described in the Supplemental Information
The data set is described as above. The note with it: both partners purified.
Take B2: the binding result was “binds”. Still for that read-out and setting: then B3, with “binds”; and B4, with “binds”; and B5, with “binds”.

As for B6, the binding result is given as “binds”. The same measure, in the same setting: then B7, with “binds”; and A[pS]R[pS]PTF (peptide, UniProt Q6UWZ7 403-409, looked up, also called Abraxas(Y403A)_short) [Abraxas peptide Ab2p(Y403A_short)], with “binds”.

The next data set addresses T1, BRCA1 BRCT domains. Put plainly: native MS; peak fractions from gel filtration, 15 μM protein, 300 mM ammonium acetate pH 7.6, nano-electrospray. Conditions: both partners purified. (In general: In gel filtration, larger molecules generally elute earlier.)
On to B8, for which the stoichiometry N (commonly a count of units in the complex or per binding partner) turned out to be 1. Same read-out and setting: then PTRVS[pS]PVFGAT [CtIP phosphopeptide], with 1. Still for that read-out and setting: then ISRST[pS]PTFNKQTK [Bach1 phosphopeptide], with 1.
